From patent publication US20160194402A1 (ADURO BIOTECH HOLDINGS EUROPE B V, published 2016) come the findings set out here.

Substitutions are numbered along the chain they refer to.

Test [1] concerns the target recombinant hCD70 (CD70(h)-muCD8 fusion Protein, Ancell, cat. no. ANC-537-030) (mouse; human). Briefly: cell-based competition ELISA: biotinylated CD70(h)-muCD8 (0.5 ug/ml) binding to CHO-K1.CD27 cells, Streptavidin-HRP. In general terms: In an ELISA, binding on a coated surface is turned into a signal by an enzyme label.
Test [2] concerns the target T1, human CD70 (cellularly expressed hCD70) (human, UniProt P32970 1-193).
T1 construct: whole, on cells; also called CHO-K1.hCD70; CHO-K1.CD70
T1 sequence (looked up): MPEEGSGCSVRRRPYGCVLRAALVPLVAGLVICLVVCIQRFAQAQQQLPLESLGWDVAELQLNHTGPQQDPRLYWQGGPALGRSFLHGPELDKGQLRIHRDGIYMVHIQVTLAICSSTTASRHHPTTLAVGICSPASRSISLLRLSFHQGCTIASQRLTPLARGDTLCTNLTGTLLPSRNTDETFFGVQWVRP
In words: cell ELISA on CHO-K1.hCD70 cells, goat anti-mouse IgG-HRP. How it is done:
Cell-based ELISA experiments using purified hCD70 antibodies were performed to determine binding activities of hCD70 to cellularly expressed hCD70. In this cell-ELISA, all incubation steps were followed by a wash step with PBST (PBS with 0.01% Tween 20). CHO-K1.hCD70 cells were seeded (40,000 cells/well) in tissue culture plates and incubated overnight at 37° C. The next day, culture medium was removed and cells were incubated for one hour with (dilutions of) purified antibodies at 37° C. Next, cells were washed with PBST and incubated for one hour at 37° C. with 1:1,000 goat-anti-mouse IgG-HRP (Southern Biotechnology, #1030-05). Subsequently, cells were washed 6 times with PBST and anti-hCD70 immunoreactivity was visualized with 100 μl TMB Stabilized Chromagen (Invitrogen, cat. no. SB02). Reactions were stopped with 100 μl 0.5 M H₂SO₄ and absorbances were read at 450 and 620 nm. […] Calculated EC₅₀, representing the concentration at which 50% of the total binding signal is observed are represented in Table 3 using 2F2 anti-hCD70 antibody (Pelicluster) as a reference.

Test [3] deals with recombinant hCD70 (CD70(h)-muCD8 fusion Protein, Ancell, cat. no. ANC-537-030) (mouse; human). Briefly: cell-based competition ELISA: biotinylated CD70(h)-muCD8 (0.5 ug/ml) binding to CHO-K1.hCD27 cells, Streptavidin-HRP (reference antibody, Example 3).
Test [4] deals with T1, human CD70 (cellularly expressed hCD70). In words: cell ELISA on CHO-K1.hCD70 cells, goat anti-mouse IgG-HRP (reference antibody, Example 3).
Test [5] deals with T2, recombinant hCD70 (CD70(h)-muCD8 fusion Protein, Ancell, cat. no. ANC-537-030) (mouse; human, UniProt P01731 28-196; P32970 39-193, biotin (position not stated; detected with Streptavidin-HRP, bound to streptavidin beads)).
T2 construct: Bought fusion protein; also called CD8-hCD70; biotin-hCD8-hCD70 recombinant protein
T2 sequence (P01731 other isoform, or with tags, fused parts or gaps): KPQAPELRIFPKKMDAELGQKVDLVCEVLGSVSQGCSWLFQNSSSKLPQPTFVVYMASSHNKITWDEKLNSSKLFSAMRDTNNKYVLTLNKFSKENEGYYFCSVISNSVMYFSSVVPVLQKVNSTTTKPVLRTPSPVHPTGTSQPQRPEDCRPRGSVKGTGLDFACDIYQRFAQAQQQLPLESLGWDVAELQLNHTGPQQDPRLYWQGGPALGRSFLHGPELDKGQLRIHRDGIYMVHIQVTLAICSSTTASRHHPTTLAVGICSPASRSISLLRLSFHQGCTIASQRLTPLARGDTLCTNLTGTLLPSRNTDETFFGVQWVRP
Briefly: cell-based competition ELISA: biotinylated CD70(h)-muCD8 (0.5 ug/ml) binding to CHO-K1.hCD27 cells, Streptavidin-HRP. Here is the method:
Blocking properties of the purified antibodies were studied using a cell-based competition assay. The CHO-K1.CD27 assay works along the following principles: CHO-K1.CD27 cells were seeded (40,000 cells/well) in a 96-well plate and incubated overnight at 37° C. After medium removal, 50 μl recombinant hCD70 (CD70(h)-muCD8 fusion Protein (Ancell, cat. no. ANC-537-030) (0.5 μg/ml) and 50 μl of different dilutions of purified anti-hCD70 antibodies were added.
After 1 hour incubation at room temperature, the wells were washed 3 times with PBST. Next, 100 μl/well Streptavidin-HRP conjugate (BD Pharmingen, cat. no. 554066) (1:5,000) was added and cells were incubated for one hour at 37° C. After 6 final washes with PBST TMB Stabilized Chromagen (Invitrogen, cat. no. SB02) (100 μl/well) was added. The reaction was stopped by the addition of 100 μl 0.5 M H₂SO₄. Absorbencies were read at […] and 620 nm. Reference antibody: anti-hCD70, clone 2F2 (Pelicluser). […] Calculated IC₅₀ values of hCD70 antibodies and the reference 2F2 anti-hCD70 antibody, which represent the concentration at which half of the inhibition is observed, are presented in Table 3.

Test [6] addresses recombinant hCD70 (CD70(h)-muCD8 fusion Protein, Ancell, cat. no. ANC-537-030) (mouse; human). The description is as above.

As to BU69 (antibody), the IC50 in test [1] is 0.96 nM. In test [2], this molecule registered an EC50 of 0.017 nM.

As to 2F2 (CLB70/2) (antibody), the IC50 was 0.4 nM in test [1] and less than 2.6 nM in test [3]. Besides, the EC50 in test [2] was 0.014 nM; in test [4], 0.13 nM.

For Ki-24 (antibody), in test [1], the IC50 turned out to be 1.5 nM. Moreover, the EC50 in test [2] amounted to 0.035 nM.

B1: hCD70.34 (antibody, IgG1, V domains shown)
VH: QVQLKESGPGLVAPSQSLSITCTVSGFSLTSYGVSWVRQPPGKGLEWLGVIWGDGTTNYHSALISRLSISKDNSKSQVFLKLNSLQIDDTATYYCAKPGDYYGSSYWYFDVWGAGTTVTVSS
VL: DVVLTQTPLSLPVNIGDQASISCKSTKSLLNSDGFTYLDWYLQKPGQSPQLLIYFVSNRFSGVPDRFSGSGSGTDFTLKISRVEADDLGVYYCFQSNYLPYTFGGGTKLEIK
notes: Mouse monoclonal purified from hybridoma supernatant
In turn, B1 gave an EC50 in test [2] of 0.21 nM. Moreover, in test [5], the IC50 came out at 109 nM.

B2: hCD70.23 (antibody, IgG1, V domains shown)
VH: QVQLQQSGPEVVRPGVSVKISCKGSGYTFTDYAMHWVKQSHAKSLEWIGVISTYNGNTNYNQKFKGKATMTVDKSSSTAYMELARLTSEDSAIYYCARDYLDYWGQGTTLTVSS
VL: DIVMTQSPSSLTVTAGEKVTMSCKSSQSLLNSGNQKNYLTWYQQKPGQPPKLLIYWASTRESGVPDRFTGSGSGTDFTLTISSVQAEDLAVYYCQNDYSYPFTFGSGTKLEIK
notes: as for B1
The molecule B2 displayed an EC50 in test [2] of 0.17 nM. In addition, the IC50 in test [5] is more than 330 nM.

B3: hCD70.32 (antibody, IgG1, V domains shown)
VH: QVQLQQSGDDLVKPGASVKLSCKASGYTFTSYWINWIKQRPGQGLEWIGRIAPGSGSTYYSKIFKGKATLTVDTSSSTAYIQLSSLSSEDSAVYFCSRGDYGDYWGQGTTLTVSS
VL: DIVMTQSHKFMSTSVGDRVSITCKASQDVGTAVAWYQQKPGESPKLLIYWASTRHTGVPDRLTGSGSGTDFTLTISNVHSEDLADYFCQQYSGYPLTFGDGTKLEL
notes: as for B1
Molecule B3 registered an EC50 in test [2] of 0.15 nM. In test [5], the IC50 was found to be 76 nM.

B4: hCD70.21 (antibody, IgG1, V domains shown)
VH: QVQLQQPGAELVKPGTSVKLSCKASGYNFTSYWINWVKLRPGQGLEWIGDIYPGSGSTNYNEKFKSKATLTVDTSSSTAYMQLSSLASEDSALYYCARGHYGSSYGFDYWGQGTTLTVSS
VL: DIVLTQSPASLAVSLGQRATISCRASKSVSTSGYSYMHWYQQKPGQPPKLLIYLASNLESGVPARFSGSGSGTDFTLNIHPVEEEDAATYYCQHSRELPLTFGAGTKLELK
notes: as for B1
B4 yielded an EC50 in test [2] of 0.26 nM. Further, the IC50 in test [5] is more than 330 nM.

B5: hCD70.36 (antibody, IgG1, V domains shown)
VH: EVQLQQSGPELVKTGASVKISCKASGYSFTGYYMHWVKQSHGKSLEWIGYISCYNGATSYNQKFKGKATFTVDTSSSTAYMQFNSLTSEDSAVYYCARGGNWDVEYAMDYWGQGTSVTVSS
VL: B4 VL with L100F, A104S, L110I
notes: as for B1
Molecule B5 gave an EC50 in test [2] of 0.3 nM. For the same molecule, in test [5], the IC50 was more than 330 nM.

B6: hCD70.39 (antibody, part only; not given: light chain, IgG1, V domains shown, part only)
VH: QGQMQQSGAELVKPGASVKLSCKTSGFTFSSNYISWLKQKPGQSLEWIAWIYAGTGGTNYNQKFTGKAQLTVDTSSSTAYIQFSSLTTEDSAIYYCARLYGYYFDYWGQGTTLTVSS
Regarding B6, the EC50 in test [2] came out at 0.34 nM. Also, the IC50 in test [6] was more than 330 nM.

The term IC50 denotes the point on the concentration scale where inhibition reaches its midpoint. Broadly, the EC50 is the concentration needed to bring the measured effect to its halfway point. Read a high EC50 as weaker potency.
